According to patent US20090232730A1, “METHOD OF PRODUCING IMMUNOLIPOSOMES AND COMPOSITIONS THEREOF” (IMMUNE DISEASE INSTITUTE, INC., priority 2006, published 2009):
Blank lines part the entries; values can stand above or below the compound they belong to. {P} = phosphate

Tests used:
[1] = tested on: K562 mock cells; assay: MTT cytotoxicity assay; format: cell-based, human; conditions: MMC formulations
Procedure: K562 cells (either K562 mock cells or K562 Mac-1 cells, stably transfected with Mac-1 integrin) were grown in 1×RPMI supplemented with 10% FBS. Exponentially growing cells were seeded at 2.5×10^5/ml in 24-well plates and either left untreated or treated with graded dosages of free mitomycin (MMC) or equivalent doses of MMC formulated in liposomes. The treatment media was selected from the following MMC formulations: (i) the test system, MMC-loaded tHA-CBRM1/29, (ii) MMC-loaded ULV-HA, (iii) free MMC, (iv) free MMC dissolved in a suspension of empty tHA-CBRM1/29 and (v) free MMC dissolved in a suspension of empty ULV-HA. In addition, there were 3 drug-free controls, consisting of: (vi) no addition (i.e., only the serum-supplemented growth medium), (vii) empty tHA-CBRM1/29 and (viii) empty ULV. In all formulations, the solvent was serum-supplemented cell growth medium. Cells were washed twice with Hepes-buffered saline (HBS) then re-incubated with drug-free media for additional 48 hours. Cells were spun down and re-suspended in 0.5 ml of MTT containing medium (0.5 mg/ml), and incubated at 37° C. for 1 h. […] After 5 min at room temperature, samples were spun down and 250-μl aliquots were used for absorbance measurements. Cell viability was measured as the difference in the absorbance 550 and 620 nm. […] Data are expressed as a percent of the control healthy growing cells.

[2] = target: integrin Mac-1 (αMβ2) (human) (UniProt P11215); assay: flow cytometry on K562 cells expressing Mac-1; free antibody before lyophilization
[3] = target: integrin Mac-1 (αMβ2) (human) (UniProt P11215); assay: flow cytometry on K562 cells expressing Mac-1; free antibody after lyophilization and reconstitution
[4] = tested on: CD4; assay: CD4 silencing in human primary CD4+ cells by flow cytometry; format: cell-based; conditions: formulated in immunomicelles, 30 pmol-1000 pmol
Procedure: Human neutrophils or lymphocytes were isolated from freshly drawn blood as described (Carman et al. J. Immunology, 171 (2003) 6135-6144). CD4 blasts were generated by isolating CD4+ T cells from peripheral blood lymphocytes of normal donors by immunomagnetic beads (Miltenyi Biotech) as previously reported (Novina et al. Nature Med. 2002; 8(7): 681-6) and culturing them in RPMI 1640 containing 10% FCS for 3 days in the presence of 4 μg/mL phytohemagglutinin (PHA), then expend the cells with the same media (without PHA) but with IL-2 at 10 ng/mL for 3 more days.
siRNA transfections were preformed with different formulations of siRNA targeted against human CD4, siRNA-luciferase, or siRNA-cy3. As a positive control we used Fugene 6 and ExGen 500 (PEI) transfection reagents. Cells were seeded in 24 or 96 well plates at a density of 5000−2×10^5 cells/well. […]

[5] = target: integrin Mac-1 (αMβ2) (human) (UniProt P11215); assay: flow cytometry on K562 cells expressing Mac-1; carrier before lyophilization
[6] = target: integrin Mac-1 (αMβ2) (human) (UniProt P11215); assay: flow cytometry on K562 cells expressing Mac-1; carrier after lyophilization and reconstitution (no cryoprotectant)
[7] = target: integrin Mac-1 (αMβ2) (human) (UniProt P11215); assay: cell-based or functional assay
[8] = target: integrin Mac-1 (αMβ2) (human) (UniProt P11215); assay: flow cytometry on K562 cells expressing Mac-1; carrier after lyophilization and reconstitution

Compound: CO[C@@]12[C@H](COC(N)=O)C3=C(C(=O)C(C)=C(N)C3=O)N1C[C@@H]1N[C@@H]12 [free MMC, mitomycin C]
cell survival [1]: no significant changes in the cell survival

MFI [2]: 82 | MFI [3]: 73
Compound: CBRM1/29-cy3 (antibody)

Compound: CD4-siRNA: siRNA targeted against human CD4, sense 5′-P.GAUCAAGAGACUCCUCAGUUU-3′, antisense 5′-P.ACUGAGGAGUCUCUUGAUCUU-3′ (RNA, 5' {P}, backbone not given here)
plateau of CD4 silencing dose response curve [4]: 500 pmol

mean fluorescence intensity [5]: 175 | mean fluorescence intensity [6]: 5.6
Compound: ULV-CBRM1/29-cy3 (antibody)

MFI [5]: 161 | MFI [8]: 172
Compound: tHA-CBRM1/29-cy3 (antibody)
IC50 (MTT cytotoxicity assay, MMC entrapped in the carrier, K562 cells expressing Mac-1) [7]: 1.75 µM | fold difference of IC50 against ULV-HA (no antibody), MTT cytotoxicity assay on K562 cells expressing Mac-1 [7]: 100 fold
